# Data published in the nanobody polyreactivity screen of Harvey et al. (2022).
# Assay: yeast display, Sf9 membrane polyspecificity reagent, FACS + sequencing; frameworks hold sequencing errors
# How it was run: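 Galactose-induced (36–48 hours) yeast carrying a synthetic nanobody display library were exposed to 10% biotinylated, detergent-solubilized Sf9 membrane reagent at 4 °C for 1 hour. FACS followed streptavidin microbead enrichment, using low and high (top ~1%) gates for expression (anti-HA) and reagent binding (streptavidin). Colony PCR, MiSeq 2 × 250 sequencing and CDR-length filtering followed. Labels for polyreactivity reflect the gate of origin.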
row,Sequence,polyreactivity (PSR sort gate)
1,QVQLVESGGGIVQAGGSLRLSCAASGRIFDEYAMGWYRLAPGKERELVAAITYSAGSTYYADSVKGRFTISRDNAKNTVYLQMNSLKPEDTAVYYCAADRYYWWWYTYNYWGQGTQVTVSS,low polyreactivity
2,QVQLVESGGGIVQAGGSLRLSCAASGRIFLTNAMGWYRQAPGKERELVAAITSGGSTYYADSVKGRFTISRDNAKNTVYLQMNSLKPEDTAVFYCNADTDRYWPYEYDYWGQGTQVTVSS,low polyreactivity
3,QVQLVESGGGIVQAGGSLRLSCAASGRIFLTNAMGWYRQAPGKERELVADISRGGSTYPDSVKGRFTISRDNAKNTVYLQMNSLKPEDTAVYYCAADEYSPGDSRTRYDYWGQGTQVTVSS,low polyreactivity
4,QVQLVESGGGIVQAGGSLRLSCAASGRIFRRYAMVWSRQAPGKQRELVAAISSGGGSTYYADSVKGRFTISRDNAKNTVYLQMNSLKPEDTAVFYCDAASSPRYDYWGQGTQVTVSS,high polyreactivity
5,QVQLVESGGGIVQAGGSLRLSCAASGRIFVDYDMGWYRQATGKERELVATISSGGSTNYADSVKGRFTISRDNAKNTVYLQMNSLKPEDSAVYHCNKDYHVRYYYWGQGTQVTVSS,low polyreactivity
6,QVQLVESGGGIVQAGGSLRLSCAASGRIFYDHAMGWYRQAPGKERELVAAITSVRSTNYADSVKGRFTISRDNAKNTVNLQMNSLKPEDTAVYYCARASAWYGTLVGKYTKYDYWGQATQVTVSS,low polyreactivity
7,QVQLVESGGGIVQAGGSLRLSCAASGRILSSYAMGWYRQAPGKERELVARISYSGGRTYYADSVKGRFTISRDNAKNTVYLQMNSQKPEDTAVYYCAAVSRVHFSYIYDYWGQGTQVTVSS,high polyreactivity
8,QVQLVESGGGIVQAGGSLRLSCAASGRSFDPYAMGWYRQAPGKERELVAAISRSGGSTYYADSVKGRFTISRDNAKNTVYLQMNSLKPEDTAFYYCAADDSRYYYEYDYWGQGTQVTVSS,high polyreactivity
9,QVQLVESGGGIVQAGGSLRLSCAASGRTFAYNVMGWYRHAPGKERELVAGISFGAGSTYYADSVKGRFTISRDNAKNTVYLQMNSLKPEDTAVYYCATRRRGTRYPRGYDYWGQGTQVTVSS,high polyreactivity
10,QVQLVESGGGIVQAGGSLRLSCAASGRTFAYYTMGWYRQAPGKERELVARISNRGTNTYYADSVKGRFTISRDNAKNTVYLQMNSLKPEDTAVYYCAKYYYTSIVGYDSWGQGTQVTVSS,low polyreactivity
11,QVQLVESGGGIVQAGGSLRLSCAASGRTFIRYTRGWYRQAPGKERELVGSIRYSGASTSYADSVKGRFTISRDNAKNTVYLQMNSLKPEDTAVYYCAARFGRYSHRYYYWGQGTQVTVSS,high polyreactivity
12,QVQLVESGGGIVQAGGSLRLSCAASGRTFLGYAMGWYRQAPGKERELVAAISYSGSSTYYADSVKGRFTISRDNAKNTVYLQMNSLKPEDTAVYYCAAQFYFLFDYWGQGTQVTVSS,low polyreactivity
13,QVQLVESGGGIVQAGGSLRLSCAASGRTFLQNAMGWYRQAPGKERELVATINYSGSSTYYADSVKGRFTISRDNAKKTVYLQMNSLKPEDTAVYYCNRDVPYRLVYYANYYRGQGTQVTVSS,low polyreactivity
14,QVQLVESGGGIVQAGGSLRLSCAASGRTFRGNAMGWSRQAPVKERELVATIRRPGGSTYYADSVKGRFTISRDNAKNTVYLQMNSLKPEDTAVYYCNALNYYLYDKTFDYWGQGTKVTVSS,high polyreactivity
15,QVQLVESGGGIVQAGGSLRLSCAASGRTFRGNAMGWYRQAPGKERELVAAISWSGGRTYYADSVKGRFTISRDNAKNTVYLQMNSLKPEDTAVYYCNRLTRRWYSLRSFDYWGQGTQVTVSS,high polyreactivity
16,QVQLVESGGGIVQAGGSLRLSCAASGRTFSPYAKGWYRQAPGKERELVAAITLSGSSTYYADSVKGRFTISRDNAKNTVYLQMNRLKPEDTAVYYCAADYLYSWYRYVTYDYWGQGTQVTVSS,high polyreactivity
17,QVQLVESGGGIVQAGGSLRLSCAASGRTFYGNVMGWYRQAPGKERELVATISFSAGSTYYADSVKGRFTISRDNAKNTVYLQMNSLKPEDTAVYYCNADHTDYASGGGNYWGQGTQVTVSS,low polyreactivity
18,QVQLVESGGGIVQAGGSLRLSCAASGSIFDSNAMGWYRQAPGKERELVAAITGSGTSTYYADSVKGRFTISRDNAKNTVYLQMNSLKPEDTAVYYCAAAPEYLTDHDYWGQGTQVTVSS,low polyreactivity
19,QVQLVESGGGIVQAGGSLRLSCAASGSIFKTNPMGWYRQAPGKERELVADISPSSGRTYYADSVKGRFTISRDNSKNTVYLQMNCLKPDDTAVYYCNRLSRRGYDYWGQGTQVTVSS,high polyreactivity
20,QVQLVESGGGIVQAGGSLRLSCAASGSIFQGNAMGWYRQAAGKERELVAAITYSGGSTYYADSVKGRFTISRDNAKNTVYLQMNSLKPEDTAVSYCNTTLRDSRQYVDRAPYTRYDYWGQGTQVTVSS,low polyreactivity
21,QVQLVESGGGIVQAGGSLRLSCAASGSIFSENTMGWYRQAPGKKRELVADITSGGSTNYADSVKGRFTISRDNAKNTVYLQMNSLKPEDTAVYYCNADWEAYKYNYWGQGTQVTVSS,low polyreactivity

row,Sequence,polyreactivity (PSR sort gate)
1,QVQLVESGGGIVQAGGSLRLSCAASGSIFSRKVMGWYRQAPGKDRELVAAISWSGSSTSYADSVKGRFTISRDTAKNTVYLQMNSLKPEDTAVYYCNRYFGQGYWGQGTQVTVSS,high polyreactivity
2,QVQLVESGGGIVQAGGSLRLSCAASGSIFVHNDMGWYRQAPGKERELVARINTGGGTNYADSVKGRFTISRDNAKNTVYLEMNSLKPEDTAVYYCATDGDRYDHYFTDPEFDYWGQGTQVTVSS,low polyreactivity
3,QVQLVESGGGIVQAGGSLRLSCAASGSIVRGYAMGWYRQAPGKERELVAAITFSGGSTYADSVKGRFTISRDNAKNTVYLQMNSLKPEDTAVYYCAAKRTGHNWFTVYPYYSWGQGTQVTVSS,low polyreactivity
4,QVQLVESGGGIVQAGGSLRLSCAASGSIYRYNTMGWYRQEPRKERELVATITRRGGSTYYADSVQGRFTISRDNAKNTVYLQMNSLKPEDTAVYYCNADYFGGPYNYWGQGTQVTVSS,low polyreactivity
5,QVQLVESGGGIVQAGGSLRLSCAASGSTFAYYAIGWYRQAPGKEREFVATITWTGGSTNYADSETGRFTISRDNAKNSVYLQMNSLKPEATAVYYSAASFVISYDYWGQGTQVTVSS,high polyreactivity
6,QVQLVESGGGIVQAGGSLRLSCAASGSTFDVNAMGWYRQAPGKERELVAAISWNSGSTYYADSVKGRFTISRDNAKNTVYLQMNSLKPEDTAVYYCAATYGTGRRSKYGYWGQGTQVTVSS,high polyreactivity
7,QVQLVESGGGIVQAGGSLRLSCAASGSTFNYYAMGWYRQAPGKERELVAAISISGGSTYYADSVKGRFTISRDNAKNTVYLQMNSLKPEDTAVYYCAAVPYGFVGYDDYWGQGTQVTVSS,low polyreactivity
8,QVQLVESGGGIVQAGGSLRLSCAASGSTFRLYAMGWYRQAPGKERELVAAITWSVGSTYYADSVKGRFTISRDNAKNTVYLQMNSLKPEDTAVYYCAADRIGYYLRVSYRGKYDHWGQGTQVTVSS,low polyreactivity
9,QVQLVESGGGIVQAGGSLRLSCAASGSTFTANAMGWYRQAPGKERELVAAISRSGGSTYYADSVKGRFTISRDNAKNTVYLQMNSLKPEDTAVYYCAAESPLFSPPDGEDYWGQGTQVTVSS,low polyreactivity
10,QVQLVESGGGIVQAGGSLRLSCAASGSTFYDYAMGWYRQAPGKETELVAAITRGGSTYYADSVKGRFTISRDNAKNTVYLQMNILKPEDTAVFYCAKYLTCAAYLVPEYDYWGQGTQVSVSS,low polyreactivity
11,QVQLVESGGGIVQAGGSLRLSCAASGSTFYRYAMGWYRQAPGKERELVATITNSGGSTYYADSVKGRFTISRDNAKNTVYLQMNSLKPEDTAVYYCARVRSRNTGYYYWGQGTQVTVSS,high polyreactivity
12,QVQLVESGGGIVQAGGSLRLSCAASGSTLWGNVMRSYRQAPGKERELVAVISKTGGSTYYADSVKGRFTISRDNAKNTVYLQMNSLKPEDSAVYYCATRWPYRSDWGLGTQVTVSS,high polyreactivity
13,QVQLVESGGGIVQAGGSLRLSCAASGSTVVIYTMGWSRQAAGKEREFVASLSVSGGSTYYADSVKGRFTISRDYAKKTVYLQMNSLKPEDTAVYYCAAGYPYYYWTPYYYWGQGTQVTVSS,high polyreactivity
14,QVQLVESGGGIVQAGGSLRLSCAASGTLGSYRQAPGNEWELVAAISQSGGSTYYADSVKGRFTISRDNAKNTVYLQMNSLKPEDTAVYYCAVDPRYGHPRRDYWGQGTQVTVSS,low polyreactivity
15,QVQLVESGGGIVQAGGSLRLSCAASGYTFGRYAMGWYRQAPGKERELVAGIRWRGGSTYYADSVKGRFTISRDNAKNTVYLQMNSLKPEDTAVYYCAAYGYPVYYNYHYDYWGQVTQVTVSS,high polyreactivity
16,QVQLVESGGGIVQAGGSLRLSCAASVFTFSDYTMGWYRQAPGKERELVAAINRGGNTYYADSVKGRFTISRDNAKNTVYLQMNSLKPEDTALYYCAAASYYAPYYWGQCTQVTVSS,high polyreactivity
17,QVQLVESGGGIVQAGGSLRLSCAATGFIFDQNAMAWYIQAPGKERELVAAISKRGGSTYYADSVKGRFTISRDNAKNTVYLQMNSLKREDTAVYYGATRSWGPYYYGYNHWGQGTQVTVSS,high polyreactivity
18,QVQLVESGGGIVQAGGSLRLSCAATGSIFGNYAMGWYRQAPGKERELVAAITSSGGTYYADSVKGRFTISRDNAKNTVYLQMNSLKPEDTAVYYCAARYYSYRHQSVKYGYWGQGTQVTVSS,high polyreactivity
19,QVQLVESGGGIVQAGGSLRLSCAGSGIIFWYYAMGWYRQAPGKERELVAAISQSGGRTYYADSVKGRFTISRDNAKNTVYLQMNSLKPEDTAVYYCAAGLVYRWSTTPRRLYYYWGQGTQVTVSS,high polyreactivity
20,QVQLVESGGGIVQAGGSLRLSCTASGFTFVYYAMGWYRQAPGKERELVASISRSGGSTYYADSVKGRFTISRDNAKNTVYLQMNSLKPEDTGVYYCNARYGRTALLDYWGQGTQVTVSS,high polyreactivity
